Consider 2 molecules from patent US20260176352A1 (BIRD ROCK BIO, published 2026).

As a reminder, the Kd is the free concentration of one partner at which half of the binding sites on the other are occupied at equilibrium, for simple one-to-one binding. Read a high Kd as lower affinity. A word on the EC50 (read off the curve): it is the concentration that produces a half-maximal response.

Test [1] concerns the target T1, native full length human CB1 receptor (cannabinoid 1 receptor) (human, UniProt P21554 1-472).
T1 construct: whole, on cells; also called A156; Native human CB1 TRex CHO A156
Briefly: flow cytometry, TRex-CHO human CB1 cells; mean of batch 2. As for the experimental part: (§1) TRex CHO parental cells, and TRex-CHO cells stably transfected with tetracycline inducible human CB1, human CB2 or mouse CB1 expression constructs were harvested. […] Cells were then centrifuged at 4° C. at 1600 rpm for 3 minutes; supernatant was aspirated and cells were washed with 200 μL FACS buffer. The washing procedure was repeated twice. After the final wash, cells were re-suspended in FACS buffer containing PE-conjugated anti-human Fc secondary antibody (1:200 dilutions) and incubated at 4° C. for 30 minutes. Cells were washed with 200 μL FACS buffer twice and analyzed by flow cytometry (Guava). Data analysis and measurement of binding affinity (KD) was performed using GraphPad Prism software.

The target in test [2] is T2, human CB2 (human, UniProt P34972 1-360).
T2 construct: whole, on cells; also called TRexCHO Human CB2
Briefly: flow cytometry on TRex-CHO human CB2 cells, middle panel. Here is the method:
(§2) After being washed with 200 μl of FACS buffer twice, cells were incubated with PE conjugated anti-human secondary antibody (Southern Biotech) for 30 minutes on ice. Cells were washed with 200 μl of FACS buffer twice and transferred to BD Falcon 5 ml tube and analyzed by flow cytometry (BD FACScalibur).
For orientation: In flow cytometry, cells or beads pass a laser one at a time.

The target in test [3] is T3, mouse CB1 (mouse, UniProt P47746 1-473).
T3 construct: whole, on cells; also called TRexCHO Mouse CB1
Briefly: flow cytometry on TRex-CHO mouse CB1 cells, lower panel. Here is the method: as §2

Test [4] addresses T4, TRex CHO A56 over-expressed CB1 (CB1 T210A/fusion partner) (UniProt P21554 1-472).
T4 construct: whole, on cells; The fusion partner stands inside the CB1 chain in place of ICL3, not at its end; also called Trex-CHO CB1 T210A/fusion partner; not shown: fusion partner that replaces ICL3
Briefly: flow cytometry, TRexCHO A56 cells. Here is the method: as §2

Test [5] concerns the target T1, native full length human CB1 receptor …. Briefly: flow cytometry, TRexCHO A156 cells. Here is the method:
as §2

The target is the same in test [6]. Briefly: cell-based or functional assay.
Test [7] has the same target. Briefly: flow cytometry on TRex-CHO cells with tetracycline inducible human CB1. Here is the method:
as §1

The target is the same in test [8]. Briefly: flow cytometry, TRex-CHO human CB1 cells; mean of batch 1. Here is the method: as §1
For test [9] the target is unchanged. Briefly: flow cytometry, TRex-CHO human CB1 cells; mean of batch 3. Here is the method: as §1
The target is the same in test [10]. Briefly: cell-based or functional assay. The source holds these as a separate data set.
Test [11] has the same target. Briefly: flow cytometry, TRex-CHO human CB1 cells; mean ± SD. As for the experimental part:
as §1

Test [12] shares this target. Briefly: flow cytometry on TRex-CHO cells stably transfected with tetracycline inducible CB1, FITC-conjugated anti-human antibody [panel A].
The target is the same in test [13]. Briefly: cell-based or functional assay. The source holds these as a separate data set.
Test [14] shares this target. Briefly: flow cytometry, Fab on TRex-CHO human CB1 cells.
The target is the same in test [15]. Briefly: cell-based or functional assay. The source holds these as a separate data set.

Several values for one entry are separate records, joined by “and”; a condition that tells them apart may be missing. Identical values can stand only once.

T2 sequence (P34972 whole entry): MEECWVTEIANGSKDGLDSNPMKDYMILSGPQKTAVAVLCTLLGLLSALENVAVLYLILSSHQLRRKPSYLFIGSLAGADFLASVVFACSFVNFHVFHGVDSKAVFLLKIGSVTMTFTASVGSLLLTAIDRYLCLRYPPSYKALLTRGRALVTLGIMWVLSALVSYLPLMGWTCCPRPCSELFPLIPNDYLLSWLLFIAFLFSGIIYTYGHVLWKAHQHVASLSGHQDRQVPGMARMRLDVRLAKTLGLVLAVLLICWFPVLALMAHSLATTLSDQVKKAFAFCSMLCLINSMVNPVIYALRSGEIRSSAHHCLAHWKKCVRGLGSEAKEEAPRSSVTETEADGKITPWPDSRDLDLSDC
T3 sequence (P47746 whole entry): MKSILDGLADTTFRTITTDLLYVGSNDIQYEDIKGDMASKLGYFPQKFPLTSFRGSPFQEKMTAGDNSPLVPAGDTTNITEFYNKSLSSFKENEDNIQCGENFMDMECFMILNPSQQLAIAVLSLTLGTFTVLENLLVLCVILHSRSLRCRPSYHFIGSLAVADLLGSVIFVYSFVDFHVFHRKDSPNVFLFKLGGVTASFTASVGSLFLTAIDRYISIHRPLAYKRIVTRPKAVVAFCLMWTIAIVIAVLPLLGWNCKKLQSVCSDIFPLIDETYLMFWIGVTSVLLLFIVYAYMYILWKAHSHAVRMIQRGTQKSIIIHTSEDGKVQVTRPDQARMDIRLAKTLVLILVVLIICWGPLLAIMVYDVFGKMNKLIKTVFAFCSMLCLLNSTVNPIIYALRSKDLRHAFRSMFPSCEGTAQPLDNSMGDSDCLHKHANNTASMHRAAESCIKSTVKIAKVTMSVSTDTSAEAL

B1: P1C4-h0-IgG1 (antibody, V domains shown)
VH: QVQLVQSGAEVKKPGSSVKVSCKASGGTFSYYWMNWVRQAPGQGLEWMGQIYPGDGETKYAQKFQGRVTITADKSTSTAYMELSSLRSEDTAVYYCARSHGNYLPYWGQGTLVTVSS
VL: EIVLTQSPATLSLSPGERATLSCRASQSVSSSYLHWYQQKPGQAPRLLIYSTSNLASGIPARFSGSGSGTDFTLTISRLEPEDFAVYYCHQYHRSPPTFGQGTKVEIKR
notes: also called P1C4-H0 No mutation; PA12R3-P1C4 HO (no back mutation)
For B1, the dissociation constant (Kd) was determined as 0.024 µM in test [1]; 0.0045 µM in test [4]; 0.025 µM in test [5]; 0.023 µM in test [8]; 0.024 µM in test [9]; 0.024 µM in [11]. The binding result in test [2] and in test [3] was “no binding (tested: about 300 nM (last point))” in each case. Also, the “IC50 (nM), cAMP assay” value in test [6] was 146 nM. For the same molecule, in test [7], the “EC50 (read off the curve)” value was ~0.01 µM and ~0.02 µM. Moreover, the “cAMP IC50 (nM) Mean of Batch 1 [n]” value in test [10] came to 158 nM. Moreover, the “cAMP IC50 (nM) Mean of Batch 2 [n]” value in [10] stood at 343 nM.

B2: P1C4-h4 Fab (Fab, V domains shown)
VH: QVQLVQSGAEVKKPGSSVKVSCKASGYEFSYYWMNWVRQAPGQGLEWMGQIYPGDGETKYNGKFQGRVTITADKSTSTAYMELSSLRSEDTAVYYCARSHGNYLPYWGQGTLVTVSS
VL: EIVLTQSPATLSLSPGERATLSCRASQSVSSSYLHWYQQKPGQAPRLLIYSTSNLASGIPARFSGSGSGTDFTLTISRLEPEDFAVYYCHQYHRSPPTFGQGTKVEIK
notes: Fab; constant parts not described; also called humanized P1C4 Fab h4
In the case of B2, the concentration for a half-maximal effect (EC50 (read off the curve)) in [12] was roughly 0.02 µM. The “IC50 cAMP assay” value in test [13] worked out at 0.043 µM. Besides, binding in [14] was characterised by a dissociation constant (Kd) of 0.0162 µM. The “IC50 (read off the curve), cAMP assay [panel B]” value in [15] was roughly 0.04 µM.
